Reference: the supplement of paper PMC10598134
± gives the standard deviation.

Assay: collision cross section of modified peptide (TIMS, N2, iRT-aligned); higher = larger / more extended gas-phase ion
How it was run: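 Synthetic peptide pools (~100 fmol/µL in 2% acetonitrile/0.1% formic acid, iRT standard spiked 1:40) were separated on a 120-min nanoflow C18 gradient at 60 °C. They were analysed on a timsTOF Pro/HT (dda-PASEF, nitrogen, ~2.4 mbar) and identified with MaxQuant. 1/K0 was calibrated with three reference ions and aligned run-wise to the median iRT peptide deviation. Collision cross section came from the Mason-Schamp equation, averaging 1–3 technical replicates of the most abundant feature per charge state.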

[1] = charge state: 3, modification: Hydroxyproline
[2] = charge state: 2, modification: Hydroxyproline
[3] = charge state: 2, modification: Citrullination (R)
[4] = charge state: 3, modification: Citrullination (R)
[5] = charge state: 3, modification: Methyl (R)
[6] = charge state: 2, modification: Methyl (R)
[7] = charge state: 2, modification: Nitro (Y)
[8] = charge state: 2, modification: Phospho (Y)

GFPGAPGLPGLKGHR [_GFP(Hydroxyproline)GAPGLPGLKGHR_]
collision cross section [1]: 478.5 ± 1.8 Å²

GFPGIQGRK [_GFP(Hydroxyproline)GIQGRK_]
collision cross section [2]: 339.07 Å²
collision cross section [1]: 407.07 Å²

GGFQNRGGGSGGGGNYR [_GGFQNR(Citrullination (R))GGGSGGGGNYR_]
collision cross section [3]: 403.21 ± 0.81 Å²
collision cross section [4]: 503.84 Å²

GGFQNRGGGSGGGGNYR [_GGFQNR(Methyl (R))GGGSGGGGNYR_]
collision cross section [5]: 475.78 ± 6.5 Å²

GGGDRGGFGPGK [_GGGDR(Citrullination (R))GGFGPGK_]
collision cross section [3]: 334.18 ± 0.75 Å²

GGGDRGGFGPGK [_GGGDR(Methyl (R))GGFGPGK_]
collision cross section [6]: 341.42 ± 0.86 Å²
collision cross section [5]: 412.06 ± 3 Å²

GGGFGAHGRGR [_GGGFGAHGR(Citrullination (R))GR_]
collision cross section [3]: 343.86 ± 0.28 Å²
collision cross section [4]: 412.59 ± 0.45 Å²

GGGFGAHGRGR [_GGGFGAHGR(Methyl (R))GR_]
collision cross section [6]: 351.67 ± 1.1 Å²
collision cross section [5]: 421.56 ± 5.3 Å²

GGGGGGGGGAPRGR [_GGGGGGGGGAPR(Citrullination (R))GR_]
collision cross section [3]: 333.41 ± 0.64 Å²
collision cross section [4]: 420.82 ± 2.9 Å²

GGGGGGGGGAPRGR [_GGGGGGGGGAPR(Methyl (R))GR_]
collision cross section [6]: 346.08 ± 2.1 Å²
collision cross section [5]: 427.42 ± 3.8 Å²

GGGGGRGGLHDFR [_GGGGGR(Citrullination (R))GGLHDFR_]
collision cross section [3]: 380.63 ± 2.7 Å²
collision cross section [4]: 438.48 ± 1.8 Å²

GGGGGRGGLHDFR [_GGGGGR(Methyl (R))GGLHDFR_]
collision cross section [5]: 457.91 ± 1.5 Å²

GGGYGGDRGGYGGDR [_GGGYGGDR(Citrullination (R))GGYGGDR_]
collision cross section [3]: 373.62 ± 7.7 Å²

GGGYGGDRGGYGGDR [_GGGYGGDR(Methyl (R))GGYGGDR_]
collision cross section [5]: 455.76 ± 1.3 Å²

GGNFGGRGGYGGGGGGSR [_GGNFGGR(Citrullination (R))GGYGGGGGGSR_]
collision cross section [3]: 392.17 ± 1 Å²
collision cross section [4]: 481.82 Å²

GGNFGGRGGYGGGGGGSR [_GGNFGGR(Methyl (R))GGYGGGGGGSR_]
collision cross section [5]: 462.43 ± 2.7 Å²

GGPGAPGAPGPK [_GGPGAP(Hydroxyproline)GAPGPK_]
collision cross section [2]: 326.77 ± 0.24 Å²

GGPGAPGAPGPKGESGDYK [_GGP(Hydroxyproline)GAPGAPGPKGESGDYK_]
collision cross section [2]: 431.65 ± 0.34 Å²
collision cross section [1]: 482.83 ± 2.3 Å²

GGPGGELPRGPQAGLGPR [_GGPGGELPR(Citrullination (R))GPQAGLGPR_]
collision cross section [3]: 413.18 ± 0.98 Å²
collision cross section [4]: 502.3 ± 0.77 Å²

GGPGGELPRGPQAGLGPR [_GGPGGELPR(Methyl (R))GPQAGLGPR_]
collision cross section [5]: 497.33 ± 2 Å²

GGPGSTLSFVGKR [_GGPGSTLSFVGK(Acetyl (K))R_]
collision cross section (charge state: 2, modification: Acetyl (K)): 381.14 ± 0.21 Å²
collision cross section (charge state: 3, modification: Acetyl (K)): 429.09 ± 1.1 Å²

GGPGSTLSFVGKR [_GGPGSTLSFVGK(Biotin)R_]
collision cross section (charge state: 2, modification: Biotin): 397.77 Å²

GGPGSTLSFVGKR [_GGPGSTLSFVGK(Butyryl)R_]
collision cross section (charge state: 2, modification: Butyryl): 388.34 ± 1.3 Å²
collision cross section (charge state: 3, modification: Butyryl): 432.12 ± 3.2 Å²

GGPGSTLSFVGKR [_GGPGSTLSFVGK(Crotonyl)R_]
collision cross section (charge state: 2, modification: Crotonyl): 386.64 ± 0.27 Å²
collision cross section (charge state: 3, modification: Crotonyl): 427.61 ± 1.6 Å²

GGPGSTLSFVGKR [_GGPGSTLSFVGK(Dimethyl (K))R_]
collision cross section (charge state: 2, modification: Dimethyl (K)): 393.41 ± 0.79 Å²
collision cross section (charge state: 3, modification: Dimethyl (K)): 425.47 ± 2 Å²

GGPGSTLSFVGKR [_GGPGSTLSFVGK(Formyl)R_]
collision cross section (charge state: 2, modification: Formyl): 378.65 ± 0.9 Å²

GGPGSTLSFVGKR [_GGPGSTLSFVGK(Gluratylation)R_]
collision cross section (charge state: 2, modification: Glutarylation): 392.32 ± 0.52 Å²
collision cross section (charge state: 3, modification: Glutarylation): 441.96 ± 5.9 Å²

GGPGSTLSFVGKR [_GGPGSTLSFVGK(GlyGly (K))R_]
collision cross section (charge state: 2, modification: GlyGly (K)): 403.34 ± 0.36 Å²
collision cross section (charge state: 3, modification: GlyGly (K)): 451.29 ± 1.3 Å²

GGPGSTLSFVGKR [_GGPGSTLSFVGK(Malonyl)R_]
collision cross section (charge state: 2, modification: Malonyl): 380.38 ± 0.0061 Å²

GGPGSTLSFVGKR [_GGPGSTLSFVGK(Methyl (K))R_]
collision cross section (charge state: 2, modification: Methyl (K)): 391.3 ± 0.92 Å²
collision cross section (charge state: 3, modification: Methyl (K)): 452.34 ± 5 Å²

GGPGSTLSFVGKR [_GGPGSTLSFVGK(Propionyl)R_]
collision cross section (charge state: 2, modification: Propionyl): 384.23 ± 0.44 Å²

GGPGSTLSFVGKR [_GGPGSTLSFVGK(Succinyl)R_]
collision cross section (charge state: 2, modification: Succinyl): 387.5 ± 0.76 Å²
collision cross section (charge state: 3, modification: Succinyl): 434.26 Å²

GGPGSTLSFVGKR [_GGPGSTLSFVGK(Trimethyl (K))R_]
collision cross section (charge state: 2, modification: Trimethyl (K)): 401.16 Å²
collision cross section (charge state: 3, modification: Trimethyl (K)): 424.62 ± 2.4 Å²

GGPGSTLSFVGKR [_GGPGSTLSFVGK(hydroxyisobutyryl)R_]
collision cross section (charge state: 2, modification: hydroxyisobutyryl): 388.57 ± 0.81 Å²

GGQGPPGPQGPIGYPGPR [_GGQGPPGPQGPIGYP(Hydroxyproline)GPR_]
collision cross section [2]: 420.55 ± 2.1 Å²
collision cross section [1]: 474.06 ± 0.36 Å²

GGRGTPGK [_GGRGTP(Hydroxyproline)GK_]
collision cross section [2]: 291.37 ± 3.4 Å²

GGSAGGRGFFR [_GGSAGGR(Citrullination (R))GFFR_]
collision cross section [3]: 340.82 ± 0.52 Å²

GGSAGGRGFFR [_GGSAGGR(Methyl (R))GFFR_]
collision cross section [6]: 365.18 ± 0.78 Å²
collision cross section [5]: 426.87 ± 4.1 Å²

GGSGGRGVSVSSAR [_GGSGGR(Citrullination (R))GVSVSSAR_]
collision cross section [3]: 361.74 ± 2.3 Å²
collision cross section [4]: 445.09 ± 2.9 Å²

GGSGGRGVSVSSAR [_GGSGGR(Methyl (R))GVSVSSAR_]
collision cross section [6]: 384.84 ± 7.6 Å²
collision cross section [5]: 464.84 ± 13 Å²

GHPGPPGPPGEQGLPGLAGK [_GHPGPPGPP(Hydroxyproline)GEQGLPGLAGK_]
collision cross section [2]: 440.72 ± 0.83 Å²
collision cross section [1]: 495.73 ± 18 Å²

GHYTIGK [_GHY(Nitro (Y))TIGK_]
collision cross section [7]: 323.5 ± 0.72 Å²

GHYTIGK [_GHY(Phospho (Y))TIGK_]
collision cross section [8]: 330.16 ± 0.068 Å²

GIGRGTVQALHATGAR [_GIGR(Citrullination (R))GTVQALHATGAR_]
collision cross section [3]: 453.22 ± 0.95 Å²
collision cross section [4]: 491.89 ± 1.9 Å²

GIGRGTVQALHATGAR [_GIGR(Methyl (R))GTVQALHATGAR_]
collision cross section [5]: 502.48 ± 1.9 Å²

GITGKPGPK [_GITGKP(Hydroxyproline)GPK_]
collision cross section [2]: 315.51 ± 1.9 Å²

GKLGVPGLPGYPGR [_GKLGVP(Hydroxyproline)GLPGYPGR_]
collision cross section [2]: 384.86 ± 0.79 Å²
collision cross section [1]: 481 ± 2.9 Å²

GLATFPSRGAK [_GLATFPSR(Citrullination (R))GAK_]
collision cross section [3]: 353.86 ± 0.53 Å²

GLATFPSRGAK [_GLATFPSR(Methyl (R))GAK_]
collision cross section [6]: 371.86 ± 0.78 Å²
collision cross section [5]: 447 ± 3.2 Å²

GLPGEKGER [_GLP(Hydroxyproline)GEKGER_]
collision cross section [2]: 345.98 ± 0.8 Å²
collision cross section [1]: 396.91 ± 2 Å²

GLPGEPGPR [_GLPGEP(Hydroxyproline)GPR_]
collision cross section [2]: 312.79 ± 1.3 Å²

GLPGEPGPRGLLGPK [_GLP(Hydroxyproline)GEPGPRGLLGPK_]
collision cross section [1]: 506.02 ± 0.37 Å²

GLPGEPGPRGLLGPK [_GLPGEP(Hydroxyproline)GPRGLLGPK_]
collision cross section [2]: 409.23 ± 0.28 Å²

GLPGLAGDHGEFGEK [_GLP(Hydroxyproline)GLAGDHGEFGEK_]
collision cross section [2]: 432.14 ± 0.34 Å²
collision cross section [1]: 497.67 ± 1.7 Å²

GLPGPPGPQGESR [_GLP(Hydroxyproline)GPPGPQGESR_]
collision cross section [2]: 363.77 ± 1.6 Å²

GLQGPPGK [_GLQGPP(Hydroxyproline)GK_]
collision cross section [2]: 294.56 ± 0.29 Å²

GNDISSGTVLSDYVGSGPPK [_GNDISSGTVLSDY(Nitro (Y))VGSGPPK_]
collision cross section [7]: 466.4 ± 0.42 Å²

GNDISSGTVLSDYVGSGPPKK [_GNDISSGTVLSDY(Nitro (Y))VGSGPPKK_]
collision cross section (charge state: 3, modification: Nitro (Y)): 549.52 Å²

GNPGVGTQGPR [_GNP(Hydroxyproline)GVGTQGPR_]
collision cross section [2]: 327.91 ± 0.79 Å²

GPKGQQGEPGPK [_GPKGQQGEP(Hydroxyproline)GPK_]
collision cross section [2]: 357.43 ± 1.4 Å²
collision cross section [1]: 444.16 ± 2 Å²

GPPGAKGNK [_GPP(Hydroxyproline)GAKGNK_]
collision cross section [2]: 311.98 ± 0.24 Å²

GPPGPAGPSGESR [_GPP(Hydroxyproline)GPAGPSGESR_]
collision cross section [2]: 344.62 ± 1.9 Å²

GPPGPPGK [_GPPGP(Hydroxyproline)PGK_]
collision cross section [2]: 274.06 ± 0.78 Å²

GPPGPPGR [_GPPGPP(Hydroxyproline)GR_]
collision cross section [2]: 291.03 ± 0.88 Å²

GPPGPPGRPGNSGIR [_GPPGPPGRP(Hydroxyproline)GNSGIR_]
collision cross section [1]: 429.49 ± 1.3 Å²

GPPPSYGGSSR [_GPPPSY(Phospho (Y))GGSSR_]
collision cross section [8]: 343.35 ± 0.65 Å²
